Experimental data from the Human Domainome abundance scans (Beltran et al. 2025).
± gives the uncertainty stated by the source.

B1: Tudor domain-containing protein 3, residues 554 to 611; numbered along this chain, Q9H7E2 (parent)
chain: KMWKPGDECFALYWEDNKFYRAEVEALHSSGMTAVVKFIDYGNYEEVLLSNIKPIQTE

Variants of: B1
Assay: abundance fitness (aPCA) (normalised: wild type 0, dead -1); higher = more abundant; growth selection in yeast, the domain comes from the species named
Conditions: Homo sapiens

Variant	abundance fitness
F19C	-1.02 ± 0.14
F19Q	-0.599 ± 0.12
F19M	-0.386 ± 0.13
E15Y	0.099 ± 0.11
E15N	-0.105 ± 0.1
E15P	-0.185 ± 0.093
E15F	-0.149 ± 0.1
E15H	-0.251 ± 0.11
E15C	-0.21 ± 0.098
E15Q	-0.111 ± 0.11
S30V	-0.501 ± 0.063
S30G	-0.132 ± 0.052
S30F	-0.435 ± 0.097
S30N	-0.04 ± 0.099
S30M	-0.282 ± 0.098
F10Q	-0.006 ± 0.099
F10S	-0.234 ± 0.064
F10C	-0.2 ± 0.092
F10M	0.068 ± 0.085
F10D	-0.267 ± 0.1
I55R	-0.068 ± 0.055
I55V	-0.039 ± 0.063
I55S	-0.192 ± 0.067
I55F	-0.1 ± 0.13

Variant	abundance fitness
N51F	-1.02 ± 0.19
N51D	-0.097 ± 0.1
N51R	-0.485 ± 0.06
N51V	-0.925 ± 0.083
N51G	-0.462 ± 0.055
N51Q	-0.036 ± 0.09
V47T	-0.966 ± 0.17
V47S	-0.926 ± 0.1
V47C	-0.296 ± 0.11
V47D	-0.729 ± 0.36
V47R	-0.937 ± 0.073
V47Q	-0.714 ± 0.1
I52P	-0.639 ± 0.12
I52F	-0.906 ± 0.25
I52A	-0.824 ± 0.093
I52D	-0.857 ± 0.13
I52E	-0.911 ± 0.12
I52Y	-0.923 ± 0.16
I52C	-0.37 ± 0.077
I52S	-0.853 ± 0.089
I52L	0.032 ± 0.067
I52R	-0.938 ± 0.079
Q56C	0.008 ± 0.082
Q56E	0.113 ± 0.081

Variant	abundance fitness
Q56G	0.031 ± 0.056
Q56D	-0.061 ± 0.093
E58S	0.113 ± 0.11
E58T	-0.037 ± 0.23
E58L	-0.183 ± 0.12
E58M	-0.175 ± 0.14
E58I	-0.187 ± 0.23
E58D	-0.058 ± 0.081
E58H	-0.304 ± 0.12
V36G	-0.833 ± 0.076
V36R	-0.88 ± 0.1
V36I	-0.295 ± 0.089
V36K	-0.843 ± 0.17
V36F	-0.964 ± 0.2
F38Y	-0.479 ± 0.13
F38T	-0.987 ± 0.16
F38K	-1.13 ± 0.22
F38M	-0.722 ± 0.15
F38P	-0.941 ± 0.21
F38I	-0.852 ± 0.26
F38G	-0.845 ± 0.065
K53R	0.008 ± 0.06
K53F	-0.229 ± 0.088
K53G	-0.711 ± 0.065

Variant	abundance fitness
K53M	-0.192 ± 0.12
E25Q	0.077 ± 0.075
E25K	0.051 ± 0.1
E25M	-0.025 ± 0.078
E25Y	0.046 ± 0.12
E25G	-0.315 ± 0.063
A26G	-0.068 ± 0.086
A26T	0.109 ± 0.17
A26S	0.106 ± 0.095
D7Q	-0.321 ± 0.094
D7G	-0.899 ± 0.093
D7H	-0.764 ± 0.15
D7K	-0.887 ± 0.12
D7N	-0.631 ± 0.093
D7V	-0.789 ± 0.079
D7P	-0.706 ± 0.1
D7L	-0.731 ± 0.077
M32P	-0.266 ± 0.081
M32F	-0.005 ± 0.081
M32C	-0.098 ± 0.082
M32Y	0.195 ± 0.12
M32Q	0.046 ± 0.078
M32H	0.086 ± 0.11
M32E	0.009 ± 0.083

Variant	abundance fitness
M32N	0.003 ± 0.091
K37P	-0.948 ± 0.14
K37Q	-0.359 ± 0.093
K37F	-0.218 ± 0.15
K37W	-0.635 ± 0.085
K37R	-0.064 ± 0.058
K37T	-0.923 ± 0.14
K37S	-0.616 ± 0.088
K37M	-0.741 ± 0.11
K37Y	-0.098 ± 0.14
K37N	-0.567 ± 0.17
W3T	-0.615 ± 0.1
W3E	-0.866 ± 0.17
W3S	-0.885 ± 0.1
W3A	-0.634 ± 0.09
W3C	-0.509 ± 0.12
V35R	0.129 ± 0.054
V35P	-0.973 ± 0.14
V35T	0.104 ± 0.069
P5Q	-0.061 ± 0.09
P5E	-0.187 ± 0.11
P5H	-0.133 ± 0.097
P5V	-0.034 ± 0.07
P5D	-0.763 ± 0.15

Variant	abundance fitness
W14A	0.173 ± 0.065
W14S	0.134 ± 0.075
W14T	0.016 ± 0.075
W14C	0.046 ± 0.078
W14P	0.041 ± 0.11
W14F	-0.136 ± 0.084
W14E	0.011 ± 0.077
I39Y	-0.006 ± 0.15
I39Q	-0.082 ± 0.093
I39C	-0.081 ± 0.082
I39K	0.044 ± 0.097
I39A	-0.036 ± 0.063
H28N	-0.006 ± 0.094
H28W	-0.871 ± 0.095
H28P	-0.001 ± 0.1
H28Y	-0.401 ± 0.11
N43C	-0.059 ± 0.085
N43S	-0.045 ± 0.069
N43V	0.035 ± 0.057
N43M	-0.108 ± 0.071
N43G	-0.162 ± 0.045
M2I	-0.201 ± 0.12
M2Q	-0.134 ± 0.14
M2N	-0.169 ± 0.17

Variant	abundance fitness
M2R	-0.254 ± 0.086
M2H	-0.13 ± 0.17
M2T	-0.23 ± 0.091
M2P	-0.36 ± 0.1
E8G	-0.264 ± 0.054
E8Q	-0.055 ± 0.088
E8I	0.056 ± 0.1
E8V	-0.122 ± 0.066
E8P	-0.032 ± 0.088
E8L	-0.016 ± 0.075
E8Y	-0.079 ± 0.15
E8T	-0.083 ± 0.093
S29K	-0.028 ± 0.082
S29P	-0.03 ± 0.088
S29D	0.014 ± 0.097
S29C	-0.116 ± 0.079
S29N	-0.062 ± 0.12
S29Y	-0.061 ± 0.092
S29L	-0.125 ± 0.06
S29T	-0.012 ± 0.074
S29I	-0.05 ± 0.097
P54Y	-0.565 ± 0.14
P54G	-0.332 ± 0.057
